According to article PMC6700787, “Sharpin suppresses β1-integrin activation by complexing with the β1 tail and kindlin-1” (Cell Communication and Signaling : CCS, 2019):

B1: C-terminus of sharpin (SH-C, 217-387 amino acids), his-tagged (protein)
chain: GPIRLQVTLEDAASAASAASSAHVALQVHPHCTVAALQEQVFSELGFPPAVQRWVIGRCLCVPERSLASYGVRQDGDPAFLYLLSAPREAPATGPSPQHPQKMDGELGRLFPPSLGLPPGPQPAASSLPSPLQPSWSCPSCTFINAPDRPGCEMCSTQRPCTWDPLAAAST
B2: his-tagged kindlin-1 (protein)
chain: MLSSTDFTFASWELVVRVDHPNEEQQKDVTLRVSGDLHVGGVMLKLVEQINISQDWSDFALWWEQKHCWLLKTHWTLDKYGVQADAKLLFTPQHKMLRLRLPNLKMVRLRVSFSAVVFKAVSDICKILNIRRSEELSLLKPSGDYFKKKKKKDKNNKEPIIEDILNLESSPTASGSSVSPGLYSKTMTPIYDPINGTPASSTMTWFSDSPLTEQNCSILAFSQPPQSPEALADMYQPRSLVDKAKLNAGWLDSSRSLMEQGIQEDEQLLLRFKYYSFFDLNPKYDAVRINQLYEQARWAILLEEIDCTEEEMLIFAALQYHISKLSLSAETQDFAGESEVDEIEAALSNLEVTLEGGKADSLLEDITDIPKLADNLKLFRPKKLLPKAFKQYWFIFKDTSIAYFKNKELEQGEPLEKLNLRGCEVVPDVNVAGRKFGIKLLIPVADGMNEMYLRCDHENQYAQWMAACMLASKGKTMADSSYQPEVLNILSFLRMKNRNSASQVASSLENMDMNPECFVSPRCAKRHKSKQLAARILEAHQNVAQMPLVEAKLRFIQAWQSLPEFGLTYYLVRFKGSKKDDILGVSYNRLIKIDAATGIPVTTWRFTNIKQWNVNWETRQVVIEFDQNVFTAFTCLSADCKIVHEYIGGYIFLSTRSKDQNETLDEDLFHKLTGGQD
B3: integrin β1 CT protein (NMR and SPR samples) (domain or fragment, UniProt P05556 752-798, looked up)
chain: KLLMIIHDRREFAKFEKEKMNAKWDTGENPIYKSAVTTVVNPKYEGK
notes: Integrin β1 cytoplasmic tail (CT); 15N-labelled in the HSQC experiment, unlabelled analyte in SPR; The only vector named for the tails is pGST-1; also called ^15N-labeled β1 CT; the integrin β1 CT protein

Tests used:
[1] = target: T1, GST-fused integrin β1 cytoplasmic tail (Homo sapiens (Human), UniProt P05556); assay: GST pull-down
T1 chain: B3 chain

GST-fused kindlin-1 = target: T2, GST-fused kindlin-1 (Homo sapiens (Human), UniProt Q9BQL6); assay: GST pull-down
T2 chain: B2 chain

[2] = target: T3, N-terminus of sharpin (SH-N, 1-217 amino acids), his-tagged (UniProt Q9H0F6 1-217); assay: SPR; Biacore 8K; N-terminal fragment of sharpin coupled to a CM5 chip; integrin β1 CT or β3 CT injected at 2.5, 5, 10, 20 and 40 μM; room temperature, PBS; conditions: both partners purified
T3 construct: also called His-SH-N; N-terminal fragment of sharpin; source: E. coli Rosetta DE3, purified (Ni-NTA agarose)
T3 sequence (looked up): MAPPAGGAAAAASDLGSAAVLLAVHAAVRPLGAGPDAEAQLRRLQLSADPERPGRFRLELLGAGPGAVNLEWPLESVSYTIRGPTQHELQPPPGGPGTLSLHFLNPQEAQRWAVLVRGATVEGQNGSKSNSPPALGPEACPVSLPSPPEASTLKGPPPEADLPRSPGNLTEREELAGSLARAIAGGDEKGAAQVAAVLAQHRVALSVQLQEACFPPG

Binder	binding result [1]	binding result (GST-fused kindlin-1)	Kd [2] [µM]
B1	no binding	binds	
B2	binds		
B3			40
